{"source": "patent US20240065978A1", "about": "“FORMULATIONS OF GLUCAGON-LIKE-PEPTIDE-2 (GLP-2) ANALOGUES” (Zealand Pharma A/S, priority 2018, published 2024)", "key": {"[1]": {"conditions": "in vivo; cited from earlier work"}, "[2]": {"test": "covalently linked oligomers by size exclusion HPLC (peak area %)", "assay_type": "physicochemical", "conditions": "for Covalently linked oligomers: 24 months at 2-8° C., 230 mM mannitol, 15 mM histidine, pH 7", "protocol": "As shown in the examples, this amount of covalently bonded oligomers can be determined using size exclusion chromatography and determining the area under the peaks for monomeric GLP-2 analogue and oligomers respectively. This can be done using a Dionex Ultimate3000 HPLC system, giving a linear gradient, at a flow rate of 0.5 mL/min was used for the analysis. The mobile phase consisted of 0.1% TFA in 45% acetonitrile and 55% Milli-Q water. A wavelength of 215 nm was used for detection. This means that the formulations of the present invention generally contain the GLP-2 analogue at a concentration of about 2 mg/mL to about 30 mg/mL, more preferably at a concentration of about 15 mg/mL to about 25 mg/mL, and most preferably at a concentration of about 20 mg/mL. In some aspects of the present invention, it is preferred that the concentration of the GLP-2 analogue is selected so that the formulation contains 10% or less, more preferably 5% or less, more preferably 4% or less, more preferably 3% or less, and more preferably 2% or less of the GLP-2 analogue in the form of covalently bonded oligomeric products, preferably after 18 months storage. By way of illustration, the amount of covalently bonded oligomeric product may be in the range of between 2% to 5%, more preferably in the range of between 2% to 4%, and most preferably in the range of between 2% to 3%.\nFor detection of covalently linked oligomers, a Dionex Ultimate3000 HPLC system, giving a linear gradient, at a flow rate of 0.5 mL/min was used for the analysis. The mobile phase consisted of 0.1% TFA in 45% acetonitrile and 55% Milli-Q water. A wavelength of 215 nm was used for detection. The injection amount was 4 μg of peptide. The column used for the separation of the covalently formed peptides was a TSKgel SuperSW2000 (TSK BioScience) with a 4 μm particle size and dimensions of 300*4.6 mm. The overall runtime was 25 minutes. For chemical stability evaluation of the peptide monomer a C18 column with an acidic mobile phase and an acetonitrile gradient was used.\nStock solutions of mannitol (700 mM), L-histidine (200 mM) and ZP1848 peptide (acetate salt; 60 mg/mL) in water (Milli-Q) were prepared. Mannitol and histidine solutions were mixed in amounts appropriate to give 230 mM mannitol and 15 mM histidine. Peptide stock solution was added to a final concentration of 0.2, 2 and 20 mg/mL, respectively. Water was added up to 90% of final volume. If necessary, pH was adjusted to pH 7 using 1 M acetic acid/0.5 M L-arginine. Water was added up to the final volume.\nThe oligomers of ZP1848-acetate are well separated from the ZP1848-acetate monomer and are all integrated as one peak. The area percentage of the peaks was used to quantify the amount of oligomers, in particular covalently linked dimers and trimers. […]\n(§1) Stock solutions of mannitol (700 mM), histidine (200 mM) and ZP1848 peptide solution (acetate salt; approx. 50 mg/mL) in Milli-Q water were prepared. Final concentration of peptide was 20 mg/mL, mannitol 230 mM, histidine 15 mM. Peptide stock solution was added to give the desired final peptide content. Water was added up to 90% of final volume. If necessary, pH was then adjusted to the desired formulation pH using 1 M acetic acid/0.5 M L-arginine. Water was added up to the final volume. Each formulation was filled in vials. Sample containers were visually inspected for clarity and viscosity and analysed for covalently linked oligomers by SEC, and peptide monomer stability by HPLC."}, "[3]": {"test": "viscosity measured with microVISC viscosimeter", "assay_type": "physicochemical", "conditions": "20 mg/ml ZP1848-acetate, pH 7, acetate 6-15% (FIG. 2)", "protocol": "In the examples below, the viscosity of the liquid formulations of the present invention is shown to be dependent on the total acetate concentration. Preferably, the formulations have a viscosity between 0.8 and 2.0 mPa/sec as measured at 25° C. Conveniently, the viscosity may be measured by using microVISC™. In parallel, the hydrodynamic radius may be measured using a Dynamic Light Scattering, DLS, Platereader (Wyatt DynaPro II). Samples were prepared having a drug substance (DS) of the GLP-2analogue containing 6% acetate and to mimic DS having 7.8-15% acetate, then acetate was added. Data from manufacturing formulations having varied the acetate concentration from 6.7-15% is shown below in FIG. 2. The effect of controlling the total acetate concentration is that the injectability of formulations of the present invention can be modulated, for example by reducing the total acetate concentration to provide a less viscous formulation that may be more easily injected.\nSamples were prepared using a drug substance (DS) of the GLP-2 analogue ZP1848-acetate containing 6% acetate. […]\nVials were visually inspected for clarity and viscosity. The viscosity was measured using a microVISC™ viscosimeter. The hydrodynamic radius was measured using a Wyatt DynaPro II Dynamic Light Scattering (DLS) Platereader. […]"}, "[4]": {"test": "visual inspection for clarity and viscosity", "assay_type": "physicochemical", "conditions": "20 mg/mL; for Visual inspection Clear and non-viscous?: mannitol 230 mM, 24 hours at room temperature", "protocol": "Stock solutions of mannitol (700 mM), phosphate buffer (200 mM) and ZP1848-acetate peptide (60.2 mg/mL) in water (Milli-Q) were prepared. Water was added up to 90% of final volume. If necessary, pH was then adjusted to the desired formulation pH using 1 M acetic acid/0.5 M L-arginine. Water was added up to the final volume. Sample containers were visually inspected for clarity and viscosity after 24 hours at room temperature.\nVials were visually inspected for clarity and viscosity. The viscosity was measured using a microVISC™ viscosimeter. The hydrodynamic radius was measured using a Wyatt DynaPro II Dynamic Light Scattering (DLS) Platereader. The sample size loaded on the plates was 170 μl. […]\nas §1\nStock solutions of mannitol (700 mM), histidine (200 mM), and ZP1848 peptide solution (acetate salt; approx. 50 mg/mL) in Milli-Q water were prepared. Final concentration of peptide was 20 and 2 mg/mL, mannitol 230 mM, and histidine 15 mM. Water was added up to 90% of final volume. If necessary, pH was then adjusted to the desired formulation pH (7.0) using 1 M acetic acid/0.5 M L-arginine. Water was added up to the final volume. Each formulation was filled in vials. Sample containers were visually inspected for clarity and viscosity and analysed for peptide monomer stability by HPLC."}}, "data": [{"compound": "CC[C@H](C)[C@H](NC(=O)[C@H](Cc1ccccc1)NC(=O)[C@H](CC(=O)O)NC(=O)[C@H](CCCNC(=N)N)NC(=O)[C@H](C)NC(=O)[C@H](C)NC(=O)[C@H](CC(C)C)NC(=O)[C@H](CC(N)=O)NC(=O)[C@H](CC(=O)O)NC(=O)[C@H](CC(C)C)NC(=O)[C@@H](NC(=O)[C@@H](NC(=O)[C@H](CC(N)=O)NC(=O)[C@H](CCSC)NC(=O)[C@H](CCC(=O)O)NC(=O)[C@H](CC(=O)O)NC(=O)[C@H](CO)NC(=O)[C@H](Cc1ccccc1)NC(=O)[C@H](CO)NC(=O)CNC(=O)[C@H](CC(=O)O)NC(=O)CNC(=O)[C@@H](N)Cc1c[nH]cn1)[C@@H](C)O)[C@@H](C)CC)C(=O)N[C@@H](CC(N)=O)C(=O)N[C@@H](Cc1c[nH]c2ccccc12)C(=O)N[C@@H](CC(C)C)C(=O)N[C@H](C(=O)N[C@@H](CCC(N)=O)C(=O)N[C@H](C(=O)N[C@@H](CCCCN)C(=O)N[C@H](C(=O)N[C@H](C(=O)N[C@@H](CC(=O)O)C(=O)O)[C@@H](C)O)[C@@H](C)CC)[C@@H](C)O)[C@@H](C)CC", "note": "[teduglutide]", "values": [{"measurement": "half-life", "setting": "[1]", "value": "about two"}]}, {"compound": "(H-HGEGTFSSELATILDALAARDFIAWLIATKITDKKKKKK-NH2), x(CH3COOH) (also: acetate salt) [ZP1848-acetate]", "values": [{"measurement": "Covalently linked oligomers", "setting": "[2]; 0.2 mg/mL", "value": 2.60, "unit": "%"}, {"measurement": "formation of covalent oligomers, increase per week", "setting": "[2]; 2 mg/mL, 3 weeks at 40° C.", "value": 0.27, "unit": "%"}, {"measurement": "formation of covalent oligomers", "setting": "[2]; 2 mg/mL, after 3 weeks at 40° C.", "value": 1.2, "unit": "%"}, {"measurement": "formation of covalent oligomers, increase per week", "setting": "[2]; 20 mg/mL, 3 weeks at 40° C.", "value": 0.21, "unit": "%"}, {"measurement": "Covalently linked oligomers", "setting": "[2]; 20 mg/mL", "value": 1.35, "unit": "%"}, {"measurement": "formation of covalent oligomers", "setting": "[2]; 20 mg/mL, after 3 weeks at 40° C.", "value": 0.9, "unit": "%"}, {"measurement": "concentration dependence for oligomer formation", "setting": "[2]; long term storage at 2-8° C.", "value": "inversely dependent on increasing concentration of the GLP-2 analogue"}, {"measurement": "formation of covalent oligomers", "setting": "[2]; sorbitol, 3 weeks at 40° C.", "value": 1.1, "unit": "%"}, {"measurement": "viscosity as a function of acetate concentration", "setting": "[3]", "value": "increases in a non-linear manner at higher acetate concentration"}, {"measurement": "Visual inspection", "setting": "[4]; pH 6.5-7.5, 20-50 mM phosphate buffer, 24 hrs at room temperature", "value": "turbid and/or highly viscous"}]}, {"compound": "H-HGEGTFSSELATILDALAARDFIAWLIATKITDKKKKKK-NH2 [ZP1848]", "values": [{"measurement": "Covalently linked oligomers", "setting": "[2]; 2 mg/mL", "value": 1.91, "unit": "%"}, {"measurement": "initial value of the amount of oligomer", "setting": "[2]; initial, before storage", "value": "less than 0.1%"}, {"measurement": "Visual inspection Clear and non-viscous?", "setting": "[4]; pH 6.5, phosphate 20 mM", "value": "No"}, {"measurement": "Visual inspection Clear and non-viscous?", "setting": "[4]; pH 7.0, phosphate 20 mM", "value": "No"}, {"measurement": "Visual inspection Clear and non-viscous?", "setting": "[4]; pH 7.0, phosphate 50 mM", "value": "No"}, {"measurement": "Visual inspection Clear and non-viscous?", "setting": "[4]; pH 7.5, phosphate 20 mM", "value": "No"}]}]}
